Results as given in paper PMC5719984, “The Structure of a Conserved Domain of TamB Reveals a Hydrophobic β Taco Fold” (Structure(London, England:1993), 2017).

Molecular target: the molecule itself
Assay: SEC-MALS; 100 μl samples at 1-5 mg/ml on Superdex 200 10/300 GL in 20 mM Tris, 200 mM NaCl, 0.05 % LDAO pH 7.9, 0.6 ml/min

B1: TamB_(963-1138) (domain or fragment, E. coli K12, UniProt P39321 963-1138, looked up)
chain: MDVSPDVVFEATPNLFTLDGRVDVPWARIVVHDLPESAVGVSSDVVMLNDNLQPEEPKTASIPINSNLIVHVGNNVRIDAFGLKARLTGDLNVVQDKQGLGLNGQINIPEGRFHAYGQDLIVRKGELLFSGPPDQPYLNIEAIRNPDATEDDVIAGVRVTGLADEPKAEIFSDPAM
notes: whole TamB has 1,259 amino acids; Cloned into pET-21a via NdeI and XhoI; A selenomethionine-labelled form was used for phasing only; Construct as described by Josts et al., 2014
Question: For B1, which “stoichiometry N” value is on record?
Answer: 2
